Laboratory results: patent US20140234336A1

Legend:
Assay in all cases: cell-based or functional assay
[1] = biological target: HA of H1N1 influenza virus A/OH/07/2009 (influenza A virus H1N1 A/OH/07/2009)
[2] = biological target: HA of H2N2 influenza virus A/Ann Arbor/6/60, CA (influenza A virus H2N2 A/Ann Arbor/6/60, CA)
[3] = biological target: HA of H3N2 influenza virus A/Beijing/32/92-R-H3 (influenza A virus H3N2 A/Beijing/32/92-R-H3)
[4] = biological target: HA of H3N2 influenza virus A/Beijing/353/89-X109 (influenza A virus H3N2 A/Beijing/353/89-X109)
[5] = biological target: HA of H3N2 influenza virus A/Brisbane/10/07 (influenza A virus H3N2 A/Brisbane/10/07)
[6] = biological target: HA of H3N2 influenza virus A/Hong Kong/68 (influenza A virus H3N2 A/Hong Kong/68)
[7] = biological target: HA of H3N2 influenza virus A/Johannesburg/33/94 R-H3 (influenza A virus H3N2 A/Johannesburg/33/94 R-H3)
[8] = biological target: HA of H3N2 influenza virus A/Nanchang/933/95 (influenza A virus H3N2 A/Nanchang/933/95)
[9] = biological target: HA of H3N2 influenza virus A/Panama/2007/99 (influenza A virus H3N2 A/Panama/2007/99)
[10] = biological target: HA of H3N2 influenza virus A/Sydney/5/97 (influenza A virus H3N2 A/Sydney/5/97)
[11] = biological target: HA of H3N2 influenza virus A/Wisconsin/67/05 (influenza A virus H3N2 A/Wisconsin/67/05)
[12] = biological target: HA of H9N2 influenza virus A/Green-winged teal/209/TX/2009 (influenza A virus H9N2 A/Green-winged teal/209/TX/2009)

## CT149 antibody
[1]
  MN titer: 10 µg/mL
[2]
  MN titer: > 20 µg/mL
[3]
  MN titer: 0.078 µg/mL
[4]
  MN titer: 0.156 µg/mL
[5]
  MN assay: lowest antibody concentration at which no virus antigen was detected: 1.25 µg/mL
  MN titer: 0.625 µg/mL
[6]
  MN assay: lowest antibody concentration at which no virus antigen was detected: 2.5 µg/mL
[7]
  MN titer: 0.625 µg/mL
[8]
  MN titer: 0.625 µg/mL
[9]
  MN titer: 0.312 µg/mL
[10]
  MN titer: 0.625 µg/mL
[11]
  MN assay: lowest antibody concentration at which no virus antigen was detected: 1.25 µg/mL
[12]
  MN titer: 0.156 µg/mL
